# Measured values as given in the RNAGym collection of RNA variant scans (doi:10.1073/pnas.2313332121).
# This sample holds only a part of the variants without activity.
# B1: TPR 5TU (parent)
# chain: GGAUCUUCUCGAUCUAACAAAAAAGACAAAUCUGCCACAAAGCUUGAGAGCAUCUUCGGAUGCAGAGGCGGCAGCCUUCGGUGGCGCGAUAGCGCCAACGUUCUCAACUAUGACACGCAAAACGCGUGCUCCGUUGAAUGGAGUUUAUCAUG
# Variants of: B1
# Test: polymerase ribozyme fitness, log enrichment relative to wild type (log ratio); higher = more active; in vitro selection for triplet polymerase activity
# In short: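 Mutant libraries were PCR-built and transcribed for each subunit of a heterodimeric triplet polymerase ribozyme and selected for one round in triplicate at −7 °C, frozen, before gel excision of extended constructs and streptavidin-bead capture. Input and output libraries were Illumina-sequenced, keeping genotypes with ≥10 input reads and ≥1 read per output. Fitness is a logarithmic ratio of genotype to wild-type enrichment, in base 2, using inverse-variance-weighted replicate averages.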
row,Variant,polymerase ribozyme fitness (log ratio)
1,GGAUCUUCUCGAUCUAACAAAAAAGACAAAUCUGCCACAAAGCUUGAGAGCAUCUUCGGAUGCAGAGGCGGCAGCCUUCGGUGGCGAGAUAGCGCCAACGUUCUCACCUAUGACACGCAAAACGCGUGCUCCGUUGAACGGAGUUUAUCAAG [C87A A107C U139C U151A],≤ -4.2
2,GGAUCUUCUCGAUCUAACAAAAAAGACAAAUCUGCCACAAAGCUUGAGAGCAUCUUCGGAUGCAGAGGCGGCAGCCUUCGGUGGCGAGAUAGCGCCAACGUUCUCAACUAUGACCCGCAAAACGCGUGCUCCGUUGAAUGGAGUUUAUCAUG [C87A A115C],-4.1
3,GGAUCUUCUCGAUCUAACAAAAAAGACAAAUCUGCCACAAAGCUUGAGAGCAUCUUCGGAUGCAGAGGCGGCAGCCUUCGGUGGCGAGAUAGCGCCAACGUUCUCAACUAUGACACGCAAAACGUGUGCUCCGUUGUAUGGAGUUUAUCAUG [C87A C125U A137U],≤ -4.2
4,GGAUCUUCUCGAUCUAACAAAAAAGACAAAUCUGCCACAAAGCUUGAGAGCAUCUUCGGAUGCAGAGGCGGCAGCCUUCGGUGGCGGGAUAGCGCCAACGUUCUCGACUAUGACACGCAAAACGCGUGCUCCGUUGAAUGGAGUUUAUCAUG [C87G A106G],-4
5,GGAUCUUCUCGAUCUAACAAAAAAGACAAAUCUGCCACAAAGCUUGAGAGCAUCUUCGGAUGCAGAGGCGGCAGCCUUCGGUGGCUCGAUAGCGCCAACGUUCGCAACUAUGACAAGCAAAACGCGUGCUCCGUUGAAUGGAGUUUAUCAUG [G86U U104G C116A],-2.52
6,GGAUCUUCUCGAUCUAACAAAAAAGACAAAUCUGCCACAAAGCUUGAGAGCAUCUUCGGAUGCAGAGGCGGCAGCCUUCGGUGGCGGGAUAGCGCCAGCGUUCUCAACUAUGACACGCAAAACGCGUGCUCCGUUGAAUGGAGUUUAUCAUG [C87G A98G],≤ -4.2
7,GGAUCUUCUCGAUCUAACAAAAAAGACAAAUCUGCCACAAAGCUUGAGAGCAUCUUCGGAUGCAGAGGCGGCAGCCUUCGGUGGCGGGAUAGCGCCAUCGUUCUCAACUAUGACACGCAAAACGCGUGCUCCGUUGAAUGGAGUUUAUCAUG [C87G A98U],-3.64
8,GGAUCUUCUCGAUCUAACAAAAAAGACAAAUCUGCCACAAAGCUUGAGAGCAUCUUCGGAUGCAGAGGCGGCAGCCUUCGGUGGCGAGAUAGCGCCAACGUUCUCUACUAUGACACGCAAAACGCGUGCUCCGUUGAAUGGAGUUUAUCAUG [C87A A106U],-4.18
9,GGAUCUUCUCGAUCUAACAAAAAAGACAAAUCUGCCACAAAGCUUGAGAGCAUCUUCGGAUGCAGAGGCGGCAGCCUUCGGUGGCUCGAUAGCGCCAACGUUCUCAACUAUGACACGCAAAACGCGUGCUCCGUUGAAUGGAGUUUAACAUG [G86U U148A],-3.6
10,GGAUCUUCUCGAUCUAACAAAAAAGACAAAUCUGCCACAAAGCUUGAGAGCAUCUUCGGAUGCAGAGGCGGCAGCCUUCGGUGGCGAGAUAGCGCCAACGUUCUCAACUAUGACACGCAAAACGCGUGCUCCCUUGAAUGGAGUCCAUCAUG [C87A G133C U145C U146C],≤ -4.2
11,GGAUCUUCUCGAUCUAACAAAAAAGACAAAUCUGCCACAAAGCUUGAGAGCAUCUUCGGAUGCAGAGGCGGCAGCCUUCGGUGGCGAGAUGGCGCCAACGUUCUCAACUAUGACACGCAAAACGCGUGCUCCGUUGAAUGGAGUUUAUCAUU [C87A A91G G152U],-4.13
12,GGAUCUUCUCGAUCUAACAAAAAAGACAAAUCUGCCACAAAGCUUGAGAGCAUCUUCGGAUGCAGAGGCGGCAGCCUUCGGUGGCGAGAUAUCGCCAACGUUCUCAACUAUGACACGCAAAACGCGUGCUCCGUUGAAUGGAGUUUAUCAUG [C87A G92U],0.159
13,GGAUCUUCUCGAUCUAACAAAAAAGACAAAUCUGCCACAAAGCUUGAGAGCAUCUUCGGAUGCAGAGGCGGCAGCCUUCGGUGGCGAGAUAGCGCCAACGUUCUCAACUAUGACACGCAAAAAGCGUGCUCCGUUGAAUGGAGUUUAUCUUG [C87A C123A A150U],-3.19
14,GGAUCUUCUCGAUCUAACAAAAAAGACAAAUCUGCCACAAAGCUUGAGAGCAUCUUCGGAUGCAGAGGCGGCAGCCUUCGGUGGCGAGAUAGGGCCAACGUUCUCAACUAUGAUACGCAAAACGCGUGCUCCGUUGAAUGCAGUUUAUCAUG [C87A C93G C114U G141C],≤ -4.2
15,GGAUCUUCUCGAUCUAACAAAAAAGACAAAUCUGCCACAAAGCUUGAGAGCAUCUUCGGAUGCAGAGGCGGCAGCCUUCGGUGGCGAGAUAGCGCCAACGUUCUCAACUAUGACACGCAAAACUCGUGCUCCGUUGAAUGGAGUUUAUCAUG [C87A G124U],≤ -4.2
16,GGAUCUUCUCGAUCUAACAAAAAAGACAAAUCUGCCACAAAGCUUGAGAGCAUCUUCGGAUGCAGAGGCGGCAGCCUUCGGUGGCGAGAUAGCGCCAACGUUCUCAACUAUCACAGGCAAAACGCGUGCUCCGUUGAAUGGAGUUUAUCAUG [C87A G112C C116G],≤ -4.2
17,GGAUCUUCUCGAUCUAACAAAAAAGACAAAUCUGCCACAAAGCUUGAGAGCAUCUUCGGAUGCAGAGGCGGCAGCCUUCGGUGGCGAGAUAGCGCCAACGUUCUCAACUAUGACACGCAAAACGCGUGCUCCGUUGAAUGUAGUUUAUCAUG [C87A G141U],-3.64
18,GGAUCUUCUCGAUCUAACAAAAAAGACAAAUCUGCCACAAAGCUUGAGAGCAUCUUCGGAUGCAGAGGCGGCAGCCUUCGGUGGCGAGAUAGCGCCAACGUUCUCAACUAUGACACGCAAAACGCGUGCUCCGUUGAAUGAAGUUUAUCAUG [C87A G141A],-3.89
19,GGAUCUUCUCGAUCUAACAAAAAAGACAAAUCUGCCACAAAGCUUGAGAGCAUCUUCGGAUGCAGAGGCGGCAGCCUUCGGUGGCGAGAUAGCGCUAAGGUUCUCAACUACGACACGCAAAACGAGUGCUCCGUUGAAUGGAGUUUAUCAUG [C87A C96U C99G U111C C125A],≤ -4.2
